Square brackets hold non-standard residues; d marks the D form. Peptide text beside a SMILES is read from it. * marks the point of attachment. Dolaproine = CO[C@@H]([C@@H]1CCCN1)[C@@H](C)C(=O)O; Dil = CC[C@H](C)[C@H](NC)[C@@H](CC(=O)O)OC; X1 = CC(C)[C@@H](C(=O)*)N(C)CCOCCOCCOCCON; X2 = C[C@@H](N*)[C@@H](O)c1ccccc1; NMeV = CN[C@H](C(=O)O)C(C)C
Columns and labels:
[1] = molecular target: T1, MDR/P-gp (Homo sapiens, UniProt P08183); settings: cited from earlier work
[2] = test system: 786-OS3 renal carcinoma cells; experiment: 786-OS3/PBMC renal cell carcinoma xenograft model, ARX305 and pembrolizumab; assay type: in vivo, NCG mice; settings: study day 36, 5.0 mg/kg dose of pembrolizumab alone, IP QW × 4
Method: ARX305 in combination with a checkpoint inhibitor, such as a PD-1/PD-L1 inhibitor, were tested in a renal cell carcinoma (RCC) model. For RCC, ARX305 in combination of pembrolizumab (PD-1 inhibitor) were evaluated in a cell line-derived xenograft tumor model: 786-OS3.
Female NCG mice were housed five (5) per cage in a pathogen-free, limited access room. Food and water were provided ad libitum. Mice were subcutaneously inoculated in the right flank with 5×10^6 786-OS3 renal carcinoma cells mixed with Matrigel. Tumor volumes were measured twice weekly. When tumors reached from about 175 mm^3 to about 200 mm^3 in size, mice were randomized into five (5) groups of 10 mice with approximately equal average tumor volumes. Cryopreserved peripheral blood mononuclear cells (PBMCs) from a single healthy donor were thawed and cultured in Roswell Park Memorial Institut (RPMI) medium+10% fetal bovine serum at 37° C. for 24 hours. PBMCs were harvested and intraperitoneally injected into tumor-bearing mice (10^7/mouse). After 24 hours, mice were injected with vehicle, pembrolizumab (5 mg/kg), ARX305 (0.3 mg/kg), or pembrolizumab (5 mg/kg)+ARX305 (0.3 mg/kg). Dosing was repeated for pembrolizumab weekly for a total of 4 doses and ARX305 every other week for a total of 2 doses. […] Tumor volumes were continually measured twice weekly and FIG. 15 show mean tumor volumes +/−SEM for each group.

[3] = molecular target: T1, MDR/P-gp; experiment: MDR pump substrate assessment; assay type: in vitro ADME; settings: data not shown
[4] = molecular target: T2, BCRP (Homo sapiens, UniProt Q9UNQ0); experiment: BCRP substrate assessment; assay type: in vitro ADME; settings: data not shown
T2 sequence (Q9UNQ0 1-655): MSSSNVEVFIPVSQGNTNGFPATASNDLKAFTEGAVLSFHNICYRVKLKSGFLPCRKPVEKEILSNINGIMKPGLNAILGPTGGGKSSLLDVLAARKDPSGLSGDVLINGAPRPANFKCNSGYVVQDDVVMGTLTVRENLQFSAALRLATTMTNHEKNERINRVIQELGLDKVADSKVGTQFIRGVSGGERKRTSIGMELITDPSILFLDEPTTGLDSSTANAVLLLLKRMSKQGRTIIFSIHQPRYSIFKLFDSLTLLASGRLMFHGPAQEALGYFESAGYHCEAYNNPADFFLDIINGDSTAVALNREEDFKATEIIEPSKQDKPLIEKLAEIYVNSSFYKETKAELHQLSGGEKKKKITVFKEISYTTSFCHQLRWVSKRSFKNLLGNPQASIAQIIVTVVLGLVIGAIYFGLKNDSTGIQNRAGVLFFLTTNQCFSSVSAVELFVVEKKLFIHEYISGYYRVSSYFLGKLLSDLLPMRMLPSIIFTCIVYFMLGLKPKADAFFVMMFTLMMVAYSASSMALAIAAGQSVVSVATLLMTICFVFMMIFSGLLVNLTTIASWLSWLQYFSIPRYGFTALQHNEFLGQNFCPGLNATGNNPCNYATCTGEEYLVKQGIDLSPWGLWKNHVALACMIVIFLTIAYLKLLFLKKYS

[5] = molecular target: T3, CD70 on the surface of human tumor cell lines (human, UniProt P32970 1-193); experiment: cell-based or functional assay
T3 sequence (looked up): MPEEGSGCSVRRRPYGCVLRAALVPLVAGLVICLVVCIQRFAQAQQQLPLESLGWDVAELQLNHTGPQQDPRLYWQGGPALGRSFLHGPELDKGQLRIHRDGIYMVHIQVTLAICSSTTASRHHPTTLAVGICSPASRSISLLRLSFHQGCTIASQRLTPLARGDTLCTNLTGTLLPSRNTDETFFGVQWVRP

[6] = molecular target: T4, cynomolgus CD70 protein (cynomolgus, UniProt A0A2K5WTU9 39-190); experiment: SPR
T4 chain: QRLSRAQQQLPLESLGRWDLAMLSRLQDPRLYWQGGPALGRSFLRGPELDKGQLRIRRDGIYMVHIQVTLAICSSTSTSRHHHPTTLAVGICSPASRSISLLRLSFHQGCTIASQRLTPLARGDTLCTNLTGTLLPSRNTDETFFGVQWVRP

[7] = molecular target: T5, human CD70 protein (human, UniProt P32970 39-193); experiment: SPR
T5 chain: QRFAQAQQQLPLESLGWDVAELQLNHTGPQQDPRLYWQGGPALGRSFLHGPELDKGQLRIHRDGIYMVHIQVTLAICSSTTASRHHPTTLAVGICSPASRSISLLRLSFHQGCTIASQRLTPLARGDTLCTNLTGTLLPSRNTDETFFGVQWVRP

[8] = molecular target: T6, mouse CD70 protein (mouse, UniProt O55237 45-195, limits assumed); experiment: SPR (Biacore), ADC captured by anti-human IgG (Fc) on CM5 chip, CD70 as analyte
T6 construct: SPR analyte; construct not described; also called rodent CD70
T6 sequence (looked up): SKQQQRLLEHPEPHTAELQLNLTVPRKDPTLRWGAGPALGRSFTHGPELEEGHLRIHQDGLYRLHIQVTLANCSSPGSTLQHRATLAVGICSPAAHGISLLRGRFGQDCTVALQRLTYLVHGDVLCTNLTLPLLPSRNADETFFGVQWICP
Method: (§1) Surface plasmon resonance assays were developed in which anti-human IgG (Fc) was diluted to 25 μg/mL in immobilization buffer ([…] Sodium Acetate, pH 5.0) and injected to an activated CM5 sensor chip for 360 seconds at a flow rate of 10 μL/minute. […] After each cycle of interaction analysis, the sensor chip surface was regenerated with 3M magnesium chloride at a flow rate of 20 uL/minute for 30 seconds. Affinity analysis was performed using Biacore Insight Evaluation software, reference channel was used for background subtraction, and a 1:1 binding method was used for curve fitting.

[9] = molecular target: T7, cynomolgus CD70 protein (cynomolgus, UniProt A0A2K5WTU9 39-190); experiment: SPR (Biacore), ADC captured by anti-human IgG (Fc) on CM5 chip, CD70 as analyte, 1:1 fit
T7 construct: SPR analyte; construct not described
T7 sequence: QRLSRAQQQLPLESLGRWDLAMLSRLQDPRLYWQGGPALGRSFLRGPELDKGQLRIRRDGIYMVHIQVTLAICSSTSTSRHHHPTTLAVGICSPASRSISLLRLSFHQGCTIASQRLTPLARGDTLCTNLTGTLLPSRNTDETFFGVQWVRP
Method: as §1

T1 sequence (P08183 whole entry): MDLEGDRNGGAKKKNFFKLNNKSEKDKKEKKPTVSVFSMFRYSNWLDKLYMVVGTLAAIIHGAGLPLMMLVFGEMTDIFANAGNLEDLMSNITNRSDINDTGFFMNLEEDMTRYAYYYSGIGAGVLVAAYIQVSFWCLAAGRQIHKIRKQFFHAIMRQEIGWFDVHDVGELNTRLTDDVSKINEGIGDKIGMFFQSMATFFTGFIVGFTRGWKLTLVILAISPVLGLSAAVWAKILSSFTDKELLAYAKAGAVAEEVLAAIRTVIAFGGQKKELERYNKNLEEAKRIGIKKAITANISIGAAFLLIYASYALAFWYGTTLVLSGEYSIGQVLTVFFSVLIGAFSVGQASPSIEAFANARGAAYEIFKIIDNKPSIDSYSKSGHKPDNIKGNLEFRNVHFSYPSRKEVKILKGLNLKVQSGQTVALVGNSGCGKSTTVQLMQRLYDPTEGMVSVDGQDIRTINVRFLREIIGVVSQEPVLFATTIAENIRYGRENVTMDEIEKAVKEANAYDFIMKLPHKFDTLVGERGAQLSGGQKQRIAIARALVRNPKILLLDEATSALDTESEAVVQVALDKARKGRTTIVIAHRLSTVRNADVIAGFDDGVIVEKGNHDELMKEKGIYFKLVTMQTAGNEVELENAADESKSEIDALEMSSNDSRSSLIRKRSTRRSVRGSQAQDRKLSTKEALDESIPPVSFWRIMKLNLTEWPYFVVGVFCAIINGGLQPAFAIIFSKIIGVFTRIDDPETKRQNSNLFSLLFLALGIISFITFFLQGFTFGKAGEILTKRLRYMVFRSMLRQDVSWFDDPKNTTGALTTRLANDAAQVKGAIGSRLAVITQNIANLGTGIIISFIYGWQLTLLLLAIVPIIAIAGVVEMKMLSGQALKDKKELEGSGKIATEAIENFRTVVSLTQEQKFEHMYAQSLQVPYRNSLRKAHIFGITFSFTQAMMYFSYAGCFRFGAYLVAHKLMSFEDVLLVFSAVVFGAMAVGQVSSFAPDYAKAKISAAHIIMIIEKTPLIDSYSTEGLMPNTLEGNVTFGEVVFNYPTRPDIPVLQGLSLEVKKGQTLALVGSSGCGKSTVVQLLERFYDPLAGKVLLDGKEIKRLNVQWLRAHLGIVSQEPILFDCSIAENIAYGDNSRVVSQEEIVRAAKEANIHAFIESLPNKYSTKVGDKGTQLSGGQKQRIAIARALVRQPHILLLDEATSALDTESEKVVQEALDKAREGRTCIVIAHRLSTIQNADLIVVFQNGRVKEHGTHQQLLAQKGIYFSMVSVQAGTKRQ

Which “substrate for MDR pumps” value [1] does the source give for `CC[C@H](C)[C@@H]([C@@H](CC(=O)N1CCC[C@H]1[C@H](OC)[C@@H](C)C(=O)N[C@H](C)[C@@H](O)c1ccccc1)OC)N(C)C(=O)[C@@H](NC(=O)[C@@H](NC)C(C)C)C(C)C` [MMAE, Monomethyl auristatin E] (H-[NMeV]V[Dil][Dolaproine]-X2) here?
Its value is “known substrate”.

With “pembrolizumab: PD-1 inhibitor [reference compound]” as the molecule, how does the “tumor growth inhibition (TGI)” value [2] read?
Its value is 6%.

For `CC[C@H](C)[C@@H]([C@@H](CC(=O)N1CCC[C@H]1[C@H](OC)[C@@H](C)C(=O)N[C@@H](Cc1ccccc1)C(=O)O)OC)N(C)C(=O)[C@@H](NC(=O)[C@H](C(C)C)N(C)CCOCCOCCOCCON)C(C)C` [AS269, ((2R,3R)-3-((S)-1-((3R,4S,5S)-4-((S)-2-((S)-14-(aminooxy)-2-isopropyl-3-methyl-6,9,12-trioxa-3-azatetradecanamido)-N,3-dimethylbutanamido)-3-methoxy-5-methylheptanoyl)pyrrolidin-2-yl)-3-methoxy-2-methylpropanoyl)-L-phenylalanine] (X1-V[Dil][Dolaproine]F-OH), which “substrate for MDR/P-gp” value [3] is on record?
Its value is “not a substrate”.

What about the “substrate for BCRP” value [4] of the same molecule?
Its value is “not a substrate”.

B1: anti-CD70-AS269 ADC (antibody, human IgG1, kappa, V domains shown)
VH: EVQLVQSGAEVKKPGATVKISCKVSGYTFTDYYMNWVQQAPGKGLEWMGIINPYNGGTHYNQKFKGRVTITADTSTDTAYMELSSLRSEDTAVYYCATSGYDLYFDYWGQGTLVTVSS
VL: EIVMTQSPATLSVSPGERATLSCKASQNVGTAVAWYQQKPGQAPRLLIYSAFNRYNGIPARFSGSGPGTDFTLTISSLQSEDFAVYYCQQYSTYPLTFGGGTKVEIKR
modifications: para-acetyl-L-phenylalanine (pAF) at position 114 (Kabat numbering; the X of SEQ ID NO: 3), carrying drug-linker AS269 via an oxime bond
notes: Antibody-drug conjugate: humanized IgG1 mAb with one AS269 drug-linker per heavy chain, DAR about 2; also called ARX305; aCD70-AS269
For B1, which “Cytotoxic Potency (IC50, nM), 786-O cells (CD70 surface expression 133,000)” value [5] is on record?
Its value is 0.167 nM.

And the “Cytotoxic Potency (IC50, nM), C666-1 cells (CD70 surface expression 9,200)” value [5]?
The value was greater than 10 nM.

What about the “Cytotoxic Potency (IC50, nM), Caki-1 cells (CD70 surface expression 107,000)” value [5] of the same molecule?
Its value is 0.125 nM.

What about the “Cytotoxic Potency (IC50, nM), Hs 611.T cells (CD70 surface expression 6,600)” value [5] of the same molecule?
Its value is greater than 10 nM.

And the “Cytotoxic Potency (IC50, nM), Hs766T cells (CD70 surface expression 9,500)” value [5]?
The value was greater than 10 nM.

And the “Cytotoxic Potency (IC50, nM), KMS11 cells (CD70 surface expression 9,400)” value [5]?
Its value is greater than 10 nM.

And the “Cytotoxic Potency (IC50, nM), NCI-H40 cells (CD70 surface expression 14,900)” value [5]?
The value was 0.18 nM.

And the “Cytotoxic Potency (IC50, nM), NCI-H929 cells (CD70 surface expression 0)” value [5]?
Its value is greater than 10 nM.

What about the “Cytotoxic Potency (IC50, nM), REC-1 cells (CD70 surface expression 17,300)” value [5] of the same molecule?
Its value is 0.18 nM.

And the “Cytotoxic Potency (IC50, nM), Raji cells (CD70 surface expression 17,700)” value [5]?
The value was greater than 10 nM.

And the “Cytotoxic Potency (IC50, nM), U251MG cells (CD70 surface expression 65,800)” value [5]?
Its value is 0.04 nM.

And the “Cytotoxic Potency (IC50, nM), U266 cells (CD70 surface expression 65,000)” value [5]?
The value was 0.025 nM.

What about the Kd [6] of the same molecule?
The Kd was 0.684 nM.

And the Kd [7]?
Its Kd is 0.228 nM.

Does B1 bind [8]?
Result: no binding

And the “fold difference of affinity between human and cynomolgus CD70” value [9]?
Its value is no more than 3 fold.

From patent publication US20260224721A1, “ANTI-CD70 ANTIBODY-DRUG CONJUGATES” (Ambrx, Inc., priority 2023, published 2026)
